{"source": "the supplement of paper PMC11316812", "key": {"[1]": {"test_system": "MCF7", "assay": "percentage of EdU-negative (G0-arrested) nuclei per well, 72 h; higher = more G0 arrest", "conditions": "reference: sequence is the full UniProt precursor, the tested protein was the secreted form or ectodomain"}, "[2]": {"test_system": "hTERT-HMEC", "assay": "percentage of EdU-negative (G0-arrested) nuclei per well, 72 h; higher = more G0 arrest", "conditions": "reference: sequence is the full UniProt precursor, the tested protein was the secreted form or ectodomain"}, "[3]": {"conditions": "protein concentration 0.0171429 µM"}, "[4]": {"conditions": "protein concentration 0.171429 µM"}, "[5]": {"conditions": "protein concentration 0.0225 µM"}, "[6]": {"conditions": "protein concentration 0.03125 µM"}, "[7]": {"conditions": "protein concentration 0.3125 µM"}, "[8]": {"conditions": "protein concentration 0.0175 µM"}}, "note": "± gives the standard deviation of the averaged measurements.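 Further: secreted proteins added to cultured cells, EdU pulse at the end, nuclei found by Hoechst imaging, EdU status from nuclear versus surrounding ring intensity ratio, PBS as neutral control.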"}
{"sequence": "MTPPRLFWVWLLVAGTQGVNDGDMRLADGGATNQGRVEIFYRGQWGTVCDNLWDLTDASVVCRALGFENATQALGRAAFGQGSGPIMLDEVQCTGTEASLADCKSLGWLKSNCRHERDAGVVCTNETRSTHTLDLSRELSEALGQIFDSQRGCDLSISVNVQGEDALGFCGHTVILTANLEAQALWKEPGSNVTMSVDAECVPMVRDLLRYFYSRRIDITLSSVKCFHKLASAYGARQLQGYCASLFAILLPQDPSFQMPLDLYAYAVATGDALLEKLCLQFLAWNFEALTQAEAWPSVPTDLLQLLLPRSDLAVPSELALLKAVDTWSWGERASHEEVEGLVEKIRFPMMLPEELFELQFNLSLYWSHEALFQKKTLQALEFHTVPFQLLARYKGLNLTEDTYKPRIYTSPTWSAFVTDSSWSARKSQLVYQSRRGPLVKYSSDYFQAPSDYRYYPYQSFQTPQHPSFLFQDKRVSWSLVYLPTIQSCWNYGFSCSSDELPVLGLTKSGGSDRTIAYENKALMLCEGLFVADVTDFEGWKAAIPSALDTNSSKSTSSFPCPAGHFNGFRTVIRPFYLTNSSGVD", "values": [{"measurement": "percentage of EdU-negative", "setting": "[1]; [3]", "result": "23.8 ± 3.7", "unit": "%"}, {"measurement": "percentage of EdU-negative", "setting": "[1]; [4]", "result": "27.9 ± 1.7", "unit": "%"}, {"measurement": "percentage of EdU-negative", "setting": "[2]; [3]", "result": "6.12 ± 0.82", "unit": "%"}, {"measurement": "percentage of EdU-negative", "setting": "[2]; [4]", "result": "8.84 ± 1.8", "unit": "%"}]}
{"sequence": "MTPSRLPWLLSWVSATAWRAARSPLLCHSLRKTSSSQGGKSELVKQSLKKPKLPEGRFDAPEDSHLEKEPLEKFPDDVNPVTKEKGGPRGPEPTRYGDWERKGRCIDF [Q5VUM1]", "values": [{"measurement": "percentage of EdU-negative", "setting": "[1]; [5]", "result": "28 ± 2.2", "unit": "%"}, {"measurement": "percentage of EdU-negative", "setting": "[1]; protein concentration 0.225 µM", "result": "25.4 ± 1.5", "unit": "%"}, {"measurement": "percentage of EdU-negative", "setting": "[2]; [5]", "result": "5.46 ± 0.82", "unit": "%"}, {"measurement": "percentage of EdU-negative", "setting": "[2]; protein concentration 0.225 µM", "result": "5.79 ± 0.17", "unit": "%"}]}
{"sequence": "MTRALCSALRQALLLLAAAAELSPGLKCVCLLCDSSNFTCQTEGACWASVMLTNGKEQVIKSCVSLPELNAQVFCHSSNNVTKTECCFTDFCNNITLHLPTASPNAPKLGPMELAIIITVPVCLLSIAAMLTVWACQGRQCSYRKKKRPNVEEPLSECNLVNAGKTLKDLIYDVTASGSGSGLPLLVQRTIARTIVLQEIVGKGRFGEVWHGRWCGEDVAVKIFSSRDERSWFREAEIYQTVMLRHENILGFIAADNKDNGTWTQLWLVSEYHEQGSLYDYLNRNIVTVAGMIKLALSIASGLAHLHMEIVGTQGKPAIAHRDIKSKNILVKKCETCAIADLGLAVKHDSILNTIDIPQNPKVGTKRYMAPEMLDDTMNVNIFESFKRADIYSVGLVYWEIARRCSVGGIVEEYQLPYYDMVPSDPSIEEMRKVVCDQKFRPSIPNQWQSCEALRVMGRIMRECWYANGAARLTALRIKKTISQLCVKEDCKA [Q8NER5]", "values": [{"measurement": "percentage of EdU-negative", "setting": "[1]; [6]", "result": "24.6 ± 0.8", "unit": "%"}, {"measurement": "percentage of EdU-negative", "setting": "[1]; [7]", "result": "26 ± 0.41", "unit": "%"}, {"measurement": "percentage of EdU-negative", "setting": "[2]; [6]", "result": "4.41 ± 0.6", "unit": "%"}, {"measurement": "percentage of EdU-negative", "setting": "[2]; [7]", "result": "4.47 ± 0.65", "unit": "%"}]}
{"sequence": "MTRGGPGGRPGLPQPPPLLLLLLLLPLLLVTAEPPKPAGVYYATAYWMPAEKTVQVKNVMDKNGDAYGFYNNSVKTTGWGILEIRAGYGSQTLSNEIIMFVAGFLEGYLTAPHMNDHYTNLYPQLITKPSIMDKVQDFMEKQDKWTRKNIKEYKTDSFWRHTGYVMAQIDGLYVGAKKRAILEGTKPMTLFQIQFLNSVGDLLDLIPSLSPTKNGSLKVFKRWDMGHCSALIKVLPGFENILFAHSSWYTYAAMLRIYKHWDFNVIDKDTSSSRLSFSSYPGFLESLDDFYILSSGLILLQTTNSVFNKTLLKQVIPETLLSWQRVRVANMMADSGKRWADIFSKYNSGTYNNQYMVLDLKKVKLNHSLDKGTLYIVEQIPTYVEYSEQTDVLRKGYWPSYNVPFHEKIYNWSGYPLLVQKLGLDYSYDLAPRAKIFRRDQGKVTDTASMKYIMRYNNYKKDPYSRGDPCNTICCREDLNSPNPSPGGCYDTKVADIYLASQYTSYAISGPTVQGGLPVFRWDRFNKTLHQGMPEVYNFDFITMKPILKLDIK [Q6P4A8]", "values": [{"measurement": "percentage of EdU-negative", "setting": "[1]; [8]", "result": "25.6 ± 2.5", "unit": "%"}, {"measurement": "percentage of EdU-negative", "setting": "[1]; protein concentration 0.175 µM", "result": "27.7 ± 0.8", "unit": "%"}, {"measurement": "percentage of EdU-negative", "setting": "[2]; [8]", "result": "4.42 ± 0.062", "unit": "%"}, {"measurement": "percentage of EdU-negative", "setting": "[2]; protein concentration 0.175 µM", "result": "19.7 ± 1.7", "unit": "%"}]}
{"sequence": "MTRTYENFQYLENKVKVQGFKNGPLPLQSLLQRLCSGPCHLLLSLGLGLLLLVIICVVGFQNSKFQRDLVTLRTDFSNFTSNTVAEIQALTSQGSSLEETIASLKAEVEGFKQERQAGVSELQEHTTQKAHLGHCPHCPSVCVPVHSEMLLRVQQLVQDLKKLTCQVATLNNNASTEGTCCPVNWVEHQDSCYWFSHSGMSWAEAEKYCQLKNAHLVVINSREEQNFVQKYLGSAYTWMGLSDPEGAWKWVDGTDYATGFQNWKPGQPDDWQGHGLGGGEDCAHFHPDGRWNDDVCQRPYHWVCEAGLGQTSQESH [Q8IUN9]", "values": [{"measurement": "percentage of EdU-negative", "setting": "[1]; [5]", "result": "24.9 ± 1", "unit": "%"}, {"measurement": "percentage of EdU-negative", "setting": "[1]; protein concentration 0.225 µM", "result": "26.5 ± 0.74", "unit": "%"}, {"measurement": "percentage of EdU-negative", "setting": "[2]; [5]", "result": "5.25 ± 0.3", "unit": "%"}, {"measurement": "percentage of EdU-negative", "setting": "[2]; protein concentration 0.225 µM", "result": "4.954 ± 0.011", "unit": "%"}]}
